Measurements taken from US8715970B2, “Enzymatically catalyzed method of preparing mono-acylated polyols” (BASF SE, priority 2009, dated 2014).
Numbering of substitutions follows the chain as printed. In names and notes the source's numbering stands.

Assays:
Format in all cases: biochemical
[1] = Acylation of 1,2-ethanediol in competition with 1-butanol (Example 4)
Experimental: Additionally, 1-butanol, ≧99.5% from Riedel-de Haën, was used as a competing substrate.
25 mM decane ≧98% from Fluka, was used as internal standard.
Two different acyl donors were used:
Ethyl acetate, ≧99% from Fluka, used as both solvent and acyl donor
1 M Vinyl butyrate, >99% from Fluka, together with in MTBE, 99.5% from Lab-Scan, used as solvent.
Each diol was dissolved to a concentration of 100 mM together with 25 mM of decane in ethyl acetate, ≧99% from Fluka, used as acyl donor and solvent. Reactions were started by adding 3 ml reaction solution to 10 mg enzyme carrier beads loaded with wild-type CALB or 20 mg carrier beads loaded with T40A mutated CALB. Reactions were run at 29° C. in a temperature bath consisting of a HETO thermostat coupled to a Bom-roerder combined temperature bath and magnetic stirrer. 25 mM decane was used as internal standard were present in the reaction solution throughout both reaction and analysis. Aliquots of 60 μl were taken, filtered through wool in a Pasteur pipette together with 540 μl ethyl acetate prior to analysis. The filtration through wool removed any remaining enzyme from the reaction solution, and the reaction samples were diluted by a factor of 10 prior to analysis.
(§1) All reactions were analyzed on GC, Hewlett Packard 5890 series II. Two different 25 m×0.32 mm WCOT fused silica columns were used, depending on the different substrates and products that were analyzed. A polar GC-column with CP Chirasil-Dex CB coating was used for the reactions with 1,2-ethanediol. A non-polar GC-column with CP-SIL 5CB coating was used for the reactions with 1,4-butanediol.
(§2) The response factor for each diol was determined in relationship to decane. When all diol and mono-ester had converted to di-ester, the response factor for the di-ester could be determined in relationship to decane. The concentration of mono-ester in each reaction was determined by subtracting the concentration of di-ester from the starting concentration of diol.

[2] = Enzyme-catalyzed acylation of 2-phenyl-1,3-propanediol with ethyl acetate as acyl donor (Example 2); conditions: 2-Ph-1,3-propanediol 20 mM in ethyl acetate; for Maximum monoester yield: 29° C.
Experimental: (§3) Each diol was dissolved to a concentration of 20 mM together with 5 mM of 3-hexanone in ethyl acetate, ≧99% from Fluka, which was used as acyl donor and solvent. Reactions were started by adding 4 ml reaction solution to 20 mg enzyme carrier beads loaded with either wild-type or T40A mutated CALB. Reactions were run at 29° C. on a HLC rotating thermo block. Aliquots of 50 μl were taken, filtered through wool in a Pasteur pipette and diluted with 50 μl ethyl acetate prior to analysis. The 3-hexanon used as internal standard were present in the reaction solution throughout both reaction and analysis.
(§4) 5 mM 3-hexanone was used as internal standard in the reaction mixtures together with 20 mM diol. Aliquots were taken during the reaction by taking 50 μl of reaction sample. The samples were filtered though wool together with 50 μl ethyl acetate, thereby any remaining enzyme were removed and the reaction samples were diluted by a factor of 2 prior to analysis.
(§5) The reactions catalyzed by the T40A-mutant were rerun with 100 mg enzyme carrier beads for determination of maximum monoester yield. The reactions with 2-methyl-1,3-propanediol and 2-phenyl-1,3-propanediol were rerun at 100 mM concentration of diol and 50 mg enzyme carrier beads, both with CALB wild type and CALB T40A-mutant. This was done in order to determine the enantiomeric excess.
as §1, with “1,2-ethanediol and 1,3-propanediol.” for “1,2-ethanediol.”, “1,4-butanediol, 2-methyl-1,3-propanediol and 2-phenyl-1,3-propanediol.” for “1,4-butanediol.”
as §2, with “relationship to 3-hexanone. When all” for “relationship to decane. When all”

[3] = Enzyme-catalyzed acylation of 1,3-propanediol with ethyl acetate as acyl donor (Example 2); conditions: for Conversion at 3:1 (monoester:diester) / Conversion at 9:1 (monoester:diester) / Maximum monoester yield: 1,3-propanediol 20 mM in ethyl acetate; for Maximum monoester yield: 29° C.
Experimental: as §3, §4, §5
as §1, with “1,2-ethanediol and 1,3-propanediol.” for “1,2-ethanediol.”, “1,4-butanediol, 2-methyl-1,3-propanediol and 2-phenyl-1,3-propanediol.” for “1,4-butanediol.”
as §2, with “relationship to 3-hexanone. When all” for “relationship to decane. When all”
A great difference in concentration between acyl donor and diol was accomplished in the reactions by using ethyl acetate as solvent and acyldonor and a diol concentration of 20 mM. Therefore the reactions was considered to irreversible, following the reaction scheme:
[formula] A, B and C corresponds to diol, monoester and diester, respectively. k1 and k2 respectively corresponds to the reaction rates of the acylation of diol and monoester.
The reaction rates are dependent on enzyme concentrations and the kcat/KM towards the substrates. By fitting the concentrations measured over time into the equations and using the enzyme concentration determined by active site titration, the following results were obtained.

B1: WT: non-mutated Candida antarctica lipase B (CALB), SEQ ID NO: 2, immobilized on carrier beads (protein, listed as Candida antarctica)
chain: LPSGSDPAFSQPKSVLDAGLTCQGASPSSVSKPILLVPGTGTTGPQSFDSNWIPLSAQLGYTPCWISPPPFMLNDTQVNTEYMVNAITTLYAGSGNNKLPVLTWSQGGLVAQWGLTFFPSIRSKVDRLMAFAPDYKGTVLAGPLDALAVSAPSVWQQTTGSALTTALRNAGGLTQIVPTTNLYSATDEIVQPQVSNSPLDSSYLFNGKNVQAQAVCGPLFVIDHAGSLTSQFSYVVGRSALRSTTGQARSADYGITDCNPLPANDLTPEQKVAAAALLAPAAAAIVAGPKQNCEPDLMPYARPFAVGKRTCSGIVTP
modifications: immobilized on carrier beads
Question: What does the source list for B1?
Answer: Initial reaction rates ([1]; ethyl acetate): 0.081 mol/g/min; Initial reaction rates ([1]; vinyl butyrate): 0.41 mol/g/min; Conversion at 3:1 (monoester:diester) [2]: 46%; Maximum monoester yield [2]: 52%; Conversion at 3:1 (monoester:diester) [3]: 19%; Conversion at 9:1 (monoester:diester) [3]: 10%; Maximum monoester yield [3]: 33%; Selectivity diol/monoester ([3]; 1,3-propanediol, ethyl acetate, listed as wild type): 0.94; Selectivity diol/monoester ([3]; 1,3-propanediol, ethyl acetate, listed as wild type CALB): 0.9

B2: T40A: CALB mutant with single mutation Thr40Ala (SEQ ID NO: 4) (protein)
chain: B1 chain with T40X
modifications: T40 Mutant
Question: What does the source list for B2?
Answer: Initial reaction rates ([1]; ethyl acetate): 0.002 mol/g/min; Rate ratio, T40A/WT ([1]; ethyl acetate): 2.5%; Selectivity towards diol over 1-butanol, compared with wild type CALB ([1]; ethyl acetate as acyl donor and solvent (FIG. 9A)): higher; Initial reaction rates ([1]; vinyl butyrate): 0.065 mol/g/min; Rate ratio, T40A/WT ([1]; vinyl butyrate): 16%; Selectivity towards diol over 1-butanol, compared with wild type CALB ([1]; vinyl butyrate, MTBE (FIG. 10A)): higher; Conversion at 3:1 (monoester:diester) [2]: >95%; Maximum monoester yield [2]: 55-65%; Conversion at 3:1 (monoester:diester) [3]: 22%; Conversion at 9:1 (monoester:diester) [3]: 19%; Maximum monoester yield [3]: 50%; Selectivity diol/monoester ([3]; 1,3-propanediol, ethyl acetate): 2.4; Selectivity ratio diol/monoester T40A/WT ([3]; 1,3-propanediol, ethyl acetate): 2.6
